Results reported in paper PMC6820557, “Discovery of dual-activity small-molecule ligands of Pseudomonas aeruginosa LpxA and LpxD using SPR and X-ray crystallography” (Scientific Reports, 2019).

Experiments:
[1] = target: the molecule itself; assay: crystal structure; LpxA soaked with compound 1 (2.10 Å) or compound 2 (2.00 Å); P212121, six monomers per asymmetric unit; 12% PEG 1000, 0.2 M calcium acetate, 0.1 M imidazole pH 7.0
[2] = target: the molecule itself; assay: SEC; HiLoad 16/60 Superdex 75; 20 mM Tris pH 8.6, 250 mM NaCl, 1 mM EDTA
[3] = target: the molecule itself; assay: SEC; HiLoad 16/60 Superdex 75; 20 mM Tris-HCl pH 8.6, 250 mM NaCl

B1: P. aeruginosa LpxA (enzyme, Pseudomonas aeruginosa)
chain: MSLIDPRAIIDPSARLAADVQVGPWSIVGAEVEIGEGTVIGPHVVLKGPTKIGKHNRIYQFSSVGEDTPDLKYKGEPTRLVIGDHNVIREGVTIHRGTVQDRAETTIGDHNLIMAYAHIGHDSVIGNHCILVNNTALAGHVHVDDWAILSGYTLVHQYCRIGAHSFSGMGSAIGKDVPAYVTVFGNPAEARSMNFEGMRRRGFSSEAIHALRRAYKVVYRQGHTVEEALAELAESAAQFPEVAVFRDSIQSATRGITR
notes: LpxA, Pseudomonas aeruginosa; Two of the deposited entries 6UEC, 6UED, 6UEE, 6UEG hold this protein
- binding result [1]: binds

B2: biotinylated avidity (Avi) tagged LpxA (enzyme, Pseudomonas aeruginosa, UniProt Q9X6P4 1-258, looked up)
chain: MSLIDPRAIIDPSARLAADVQVGPWSIVGAEVEIGEGTVIGPHVVLKGPTKIGKHNRIYQFSSVGEDTPDLKYKGEPTRLVIGDHNVIREGVTIHRGTVQDRAETTIGDHNLIMAYAHIGHDSVIGNHCILVNNTALAGHVHVDDWAILSGYTLVHQYCRIGAHSFSGMGSAIGKDVPAYVTVFGNPAEARSMNFEGMRRRGFSSEAIHALRRAYKVVYRQGHTVEEALAELAESAAQFPEVAVFRDSIQSATRGITR
modifications: biotin (on the Avi tag)
notes: LpxA, Pseudomonas aeruginosa; gene inserted into the BamHI and HindIII sites of the pAvibir plasmid; printed mass of Avi-LpxA 31.6 kDa; also called Avi-LpxA; source: E. coli Rosetta DE3 pLysS, purified (HisTrap, Superdex 75)
- stoichiometry N [2]: 3

B3: biotinylated avidity (Avi) tagged LpxD (enzyme, Pseudomonas aeruginosa, UniProt Q9HXY6 1-353, looked up)
chain: MMSTLSYTLGQLAAHVGAEVRGDADLPIQGLATLQEAGPAQLSFLANPQYRKYLPESRAGAVLLTAADADGFAGTALVVANPYLAYASLSHLFDRKPKAAAGIHPTAIVAADAEVDPSASVGAYAVIESGARIGAGVSIGAHCVIGARSVIGEGGWLAPRVTLYHDVTIGARVSIQSGAVIGGEGFGFANEKGVWQKIAQIGGVTIGDDVEIGANTTIDRGALSDTLIGNGVKLDNQIMIAHNVQIGDHTAMAACVGISGSAKIGRHCMLAGGVGLVGHIEICDNVFVTGMTMVTRSITEPGSYSSGTAMQPAAEWKKSAARIRQLDDMARRLQQLEKRLAAVTSSGDASSDA
modifications: biotin (on the Avi tag)
notes: LpxD, Pseudomonas aeruginosa; gene inserted into the BamHI and HindIII sites of the pAvibir plasmid; printed mass of Avi-LpxD 39.8 kDa; also called Avi-LpxD; source: E. coli Rosetta DE3 pLysS, purified (HisTrap, Superdex 75)
- stoichiometry N [2]: 3

B4: N-terminal His-tagged P. aeruginosa LpxD with a 2 amino acid deletion (enzyme, Pseudomonas aeruginosa, UniProt Q9HXY6 3-353, looked up)
chain: STLSYTLGQLAAHVGAEVRGDADLPIQGLATLQEAGPAQLSFLANPQYRKYLPESRAGAVLLTAADADGFAGTALVVANPYLAYASLSHLFDRKPKAAAGIHPTAIVAADAEVDPSASVGAYAVIESGARIGAGVSIGAHCVIGARSVIGEGGWLAPRVTLYHDVTIGARVSIQSGAVIGGEGFGFANEKGVWQKIAQIGGVTIGDDVEIGANTTIDRGALSDTLIGNGVKLDNQIMIAHNVQIGDHTAMAACVGISGSAKIGRHCMLAGGVGLVGHIEICDNVFVTGMTMVTRSITEPGSYSSGTAMQPAAEWKKSAARIRQLDDMARRLQQLEKRLAAVTSSGDASSDA
notes: LpxD, Pseudomonas aeruginosa; they lay immediately after the N-terminal 18-AA hexahistidine tag and protease site (thrombin site replaced by a TEV site); Parent construct is that of the published structure (PDB 3PMO), with the thrombin site replaced by a TEV site; The mutagenesis primer reads ENLYFQG followed by STLSYT; Two of the deposited entries 6UEC, 6UED, 6UEE, 6UEG hold this construct; also …
- stoichiometry N [3]: 3
